The source of these data is the DeepSol protein solubility set.

A short description of this data set: soluble on expression in E. coli; label from the status in PepcDB or PDB records.
Take “MAGTVEGEKIDVGFAGKRCIHSRNCVLGDPHVFVPNAPGQWIHPDAASVEKIVAIAESCPSGAITYVRKDGGPQEQPPVVNTVRLRENGPLAVHAEIVLDGETFYRATLCRCGASENKPFCDGSHGKAGFTATGEPALKDAPALEARNGPLKVTPTTNGPLKLEGNVEIVTGTGHTIDRTQRTFLCRCGHSANKPFCDGSHKKIGFVA”: the “soluble on expression in E. coli” value is on record as “not soluble”.
For the sequence “MAHHHHHHERASLITTGPYGHQSGAVYVGNYKVVNRHLATHVDWQNCVWEDYNRDLLVSTTTAHGCDTIARCQCTTGVYFCASKSKHYPVSFEGPGLVEVQESEYYPKRYQSHVLLATGFSEPGDAGGILRCEHGVIGLVTMGGEGVVGFADVRDLLWLEDDAMEQ”, the “soluble on expression in E. coli” value is “soluble”.
Then “MAHHHHHHKNTAKTAPNHDRIKNLIAKLNNSKDEDKKKNSPNGQINRTGDVYAKNELINKKKKHINFETFLRIFLETYEEPLSVDELITSFEFFDKEKSGYLDEEKVRFILKNSEERLADEDMKLFLNSLNLRDKDKIDYVMLAKRLKNVA”, with “soluble”; and “MAHHHHHHMAAGSAEEAVALMKSAEKHSQKKFFKRPDWDAAASEYERAARIYTHLEDTNRATDAWRKASGAHQNAENNFFAARAMESLAVFLTEQSRKGMADDTSLLNNAVESYCDASKLYAFNEMFDRQADCLKKAAEIINPTKTIVTGLPATEAGSSQVKQRMQQVVGLFREGVSVLEEHIEDKPVVAVQLSELYRNWMLTHLHNGDVKGAVEVLEEQLGIRADPHKKGVFERLAQPHNSAKAGLEITVLCLSCGDDVWARQEMNKLRGVPGFSTSNEEATANALISSFEERDEEQLRAAMKNQTLQFITIDISRMSRKLKIQFSAPQRTNMTSSSLPNPSLPNEQQQGEEQQEADIDPEEDIR”, with “not soluble”.
“MAHHHHHHMADRGDARVVHVFVDDLSAVLAEDVHEWLRIIGDIDELKMRYDASRQRSFYWVRFHQSSAARLAVDHLDGERLKNHAIEIHSNVFKKQTAAVATLEGAAGGVQEEKTKLEMNPNLPKNHLMPRDLQMDELLVRAIPEMLETSEQAAEGGELLQRLLELQESYCRAQESLERTTEGIRETDGELTALLRGETTAATDVSGPSSEGFVQGNTPLASARIRNAVPVPLSTCDPAGLLSKLTRHVGPVADYAFSFASNGGSFATVVELFHPDDADFALALLTGRRMVSKSTEKHADAEDALAALVGFGWEAEASVAPLTPPSVPQASFAAHNRVATILRSCRSVA”: the “soluble on expression in E. coli” value is listed as “not soluble”.
Then “MAHHHHHHMAEIHQDKTESAVSSSGILKNVVRHSPKVSSKEIEDSEIRIVKMAHEEENRKLQKMGKCAKDYTLPCPKFWKKKIMNKSENICIASSSYNGFCTPRQSFDNFTKSEKMKFETSCNVEWGCRNVVADACESGKRNYNEPCPEGFISQNDNTCMADLTVYDGLCNGQKIDFTHLTNDEKQNWSVACEAYWPCYIDCSLNNKALSTCPSNWKEINSYECIPPYSYNGPCKDTKNFKFFNELMKKKFEEKCKVTFVCTDLCEKNYRQECPLHWMKEGGYCLAPPSFNLCDRKKYLYSNLTQEEEKKKFEQECSVQWPCQKTSFCDMDWTAECPLNWVKEVPRQGRDQEGGDKYICTADSSLYRGRCAFISLPNGADEETKRELASTCDTPWPCSATGATAGAPEEGGPVPRSDSKIVERRNSAFTNGPVTFQGDVRTNGGPTYRVVDSQGDVSLADIMR”, with “not soluble”.
For the sequence “MAHHHHHHMAFAGSNDVLKVQKMLQVLVEKRSDKKVNMDGSAKPTDQPHHPAPCGNAVDGKAPQGADAKGPLLDGKRANPTLGSSKSAKTGPAD”, the “soluble on expression in E. coli” value is “not soluble”.
With “MAHHHHHHMAFNQRFDRGAQPSYAAVQLPPGWQMAYSVEGEVYYIDHNTRTTHWKIPQEVLNEMYHQGQTYRPSRSRRGIDRSKMKTKMCMNIQNGGKCTWGNACAFAHSSEELAAVPHNGGGQRMRMDPGAHQGNDNGLDNNHLQQ” the entry was “soluble”; with “MAHHHHHHMAKDNKGKVKKAAGEETVKYYRVKGKKKILIPVKAKKTIAKKYYGRKLASKKKYIVQGKMRKSIEVGKVAIILSGKHMGKRCIITKVLTSGLLAVVGPYEVNGVPLKRVNPRYVVVTSTNIFKFENMAGLKDEFVKLAEQIEDNSFVKSLEIKKKQKKLLSKKNEGLFMNDVITKIKELMKEDPKMQQLQKIQKEIGTLLKDEIAKNKIFAEYLKSKFTLRNDMALHKMKF”, “not soluble”; with “MAHHHHHHMALLEWARQDATMKSSLELYCGPASKDLMIMDIPANVAVDAYLWEGLLVAESMLEADGTLLVVSPHAFSVRVRRFLQWRFLRAQCAVSEAGAVHYAVCSTVAAGFGDAAVRRDDFPGQLATGKRRPCKWNPYRRPEKRKFVASLRPWFTNAPFVKDALRCSLERERDAQERLRDADDAFFAVAHEMVEKGVHYSHPND”, “not soluble”.
“MAHHHHHHMALYIIGLGLGDERDVSVRGKELIEMSDVVYLESYTSVLFVSKNALEEFYKKNIKEVDRNFAEENCEEILEEAVNKKVSFLVVGDPLCATTHHDIILRAKKKNINVQVIHNASIMSAIGESGMQLYNFGQTVSIPYFEETYKPTSFYDKIKVNLDNNFHTLCLLDIKVKERTIENLMKNKNIYEPPRYMTINEAIEQLLYCEEVHKKNVITDNTRGIAIVRIGSNSQQIVSGNLLTLKTIKYNDPLHSLIICAPTLHDVEREYFDMYMHK”: the “soluble on expression in E. coli” value is given as “not soluble”.
Then “MAHHHHHHMAPPSSSACDPRVYLHERVRQHYLEVLPSRWRAVLFRLAKNTQLRQKNDVIVETHLLSEMQADFDLIHALLDEEHRVYREGVACLCSQASNGKSETERWTASRHLLQGMLSCIAMKEILIAHWKNDLVDISPNTLRVYCHACISHPHVSETDIERLLALYAVS”, with “not soluble”.
With “MAHHHHHHMAQRVAIPDDCVYEGYGNLYRGDAEVTPPQPIVGARGGNGVLYGTIDSEEALRQLRTALRVDVHPQLKALVQEKKLDEVASSPASLPWLVCRPNALPLRTLPSSFSSGTRYEIERMKSQCRFLRDWLMCHETPEERVEAREFLRTAQRLLQKESVEELLGRTENLLQQLENWPAVVEKARPHIAEWNNDKSLTELREFVGDVLGTDEVCARLSKLTCRFSLLAPLLEEAAFRSAALEEMEQWSSEATVSSLRSLRASIHDWELRVAKDQQNVLDSSQLLLERIAAVRNKRRESAGDLT” the entry was “soluble”; with “MAHHHHHHMARIISASELEKAADALARGNLVAIPTETVYGLGGNALNKEAVEKIFIVKGRPLTDPLICHVSDVEKAMDLWDVHADPEAVELARVLGTAIWPGPLTIVLRANPLLPNSVTGGSGFVGARIPRHEITLRLLQLVNFPVAAPSANTFGHVSPTTADHVLKDLGPKDSSLLIVDGGPCDIGIESTVVKVNNVESVEILRRGGVTLTEVLRALGDKFHPLITIRDTRLRHLSPEMAMDGPGQLLTHYSPNVPSRLLTPSSFTTNLPMDPEGALVEFSSNSSVAAPTEVLLRHTVIIDFGGKLQCLKPGCLAYRDLSVNAQVREACFAVFDALRWTETIPGAEVVLFPLVSGWPHASVDTDLLAAVEDRLFRAASGKVARIRMQSRSV”, “not soluble”.
Then “MAHHHHHHMARIPPLVVCGPSGVGKGTLIKKVLSEFPSRFRFSISCTTRNKREKETNGVDYYFVDKDDFERKLKEGQFLEFDKYANNFYGTLKSEYDLAVGEGKICLFEMNINGVKQLKESKHIQDGIYIFVKPPSIDILLGRLKNRNTEKPEEINKRMQELTREMDEADKVGFNYFIVNDDLARTYAELREYLLGSYPQLRGG”, with “soluble”; and “MAHHHHHHMATPRHGDLDSICSLSSSENSPRGGGQSSERLIDLLTRPCAQGGYGGRLNYTGFATLAASLGWNQEDMDDCWYDIVMGEPCAEAVDMKRVAECVCSYCLASPLPILEHSTLAKSSAAKPATPPRLPHASRERSTTVLLSPPTPRFRRAESVASTLPKTGDKQRVTTATASPSQACAHRRCTAPNVFPRYAVETVSSEQKKASLSPGRGSHRPHNRRTTAKSSRQTSPAPTLSQTSGPSGCSVFSRLYEKGMEQHRKRIAVKPVDSDAAECTFQPHITPYTPKAADTASVHYNKPTESYFAKLTAPGTPPDAICASPETPRVTYHPAPGPSSDVPAGYVEGVARLRSYIASRYAHATFASSLRGSSSADVAHLVEAPILRLPVTVRGVTDAVDVRLASPDTRASLGRECSVGPRRPCFRQRCEARHVSFPSPSRVRFQS”, with “soluble”; and “MAHHHHHHMAVVVVQVGQCGNQLGDELWRQLKLTTNSGALPSPFFTRDRRARCVLVDSEPKVVTAVYERQKDVLRAENVIHGQSGRGNHWALGYYGVNDPLSHRAAENAVVARPFQVVKDQRRCDSHVVRNALRAIHAETRRTDDVMEFEAIIVLHSLVGGTGSGMATRLLEKIRYYFIEPLDSSLTVDECEEAEMMRHDGLDGMMMEKRRASYLVSITVAPQAVGELSTQGLNAALTLHALQENANAVLLLRNDDCIRVQEDSCAGGRPRGRGNTSFSTPSFSSIPSCATFKEINEVFLTMLLPILLYGRSTNAVGELVLKCSPNPREINNILTILPTPQRHYLRFKESVTVSRLYVLRGAMQNMPGVYPSVPIELIHTARSLRNPNLVTSREEVQVPKELLKGLKETAATRRSASVTLLQQMEGVLVLNEARELNAAVLFRLLRSAAMKVKAGAFLSTFEDMGMTAECIQAAIREVATRLSAAEEI”, with “not soluble”.
Take “MAHHHHHHMCLLSFFSLYPLGSFSSGKSNMDTPPISDDDKEVIDRLFASDVPQSLSRHAVLILHYHRTVFGSMVPSNVLLAGCLLYSCKWLSYPSGNSFLKNYFQGMKTSDIVGLEMVLHGTVRQNFMLVEACLRSEMSEIVRLNDVPHNRERIVLVCLNLVRALYRTRWCLLPETAARGALLVACEMCDVHLKSLPESFNTTMVTCAVDYLRSIFAQSRC”: the “soluble on expression in E. coli” value is on record as “not soluble”.
Consider “MAHHHHHHMCLVKLYKRCFVRVPPHCVTVVYETRRNSILASSMEEANNELPQVSHFRPLMYIVSLLLYRSKKLVIVPPTSFFSTFTLPCSVLDESGDGEVVDCTVEDIHVTDGSVRMVMTIRYCIPINELERYLAAVGPTAPNERIALAAAGAARARGAELSVGLIINKSKRDTAFLEPFRAHLSSKLMSESCVKVLDVVVEAAEIADRSLGG”, for which the “soluble on expression in E. coli” value is given as “not soluble”.
With “MAHHHHHHMCSTNQKLACCSGDNVFDTKENENDSYPQMVNKQLPPKVLEPIVQNKIVEVPKEVYLEKIVEVPQIKTVERIVEQIRPVIKYKNVYKTKTVYVEKIKNVDRIIYQEKIVEVPQIKTVEKIVEVPVYVDRERIITAPRYMVVEKVIPVLKTTKKESVMEIPEVNCPNIDITQEVESKEEIQIEDLKENQTTSVVHEKDIQLLNDLNIQKMHSSATLNAEADQDTTADTIQNDNFCSTVSCKFLPMYDNFPKMQYSMCNGFPEREKRFSSINIYKSKEEGFPKIRISKTPQIIQRNCYCNYA” the entry was “not soluble”.
For the sequence “MAHHHHHHMDAKLEARMASVWEVVSSRHAVEATDLSLIQNVTRALAAMHERVEQQHAELTRWHRQNYKLMCTMVVHVNWREEDHRQLRDELVNVRQQLGRVAVRGDVPLLRPRNGG”, the “soluble on expression in E. coli” value is “not soluble”.
For the sequence “MAHHHHHHMDAVKRHSQSTWPVSMPPLHAGTQEERMTGEEAGSSTKHTEGTNDRREKHRHGPHPGRRLHTSPHTHTHHRSAVSLRVRGFGPPHNKRTHRQQLTTNDKEEKRHTAATVSSSVPRPTGYGHSPAANTQHARSKLSHKVPHAEAGPHPPMTRRLTPCGHTECTDSPIERIRRPSLKAASVIDGP”, the “soluble on expression in E. coli” value is “soluble”.
